From patent publication US20220251222A1, “IL-6Ralpha/IL-8R BISPECIFIC BINDING AGENTS FOR INHIBITING CANCER CELL MIGRATION” (The Johns Hopkins University, priority 2019, published 2022)

Assays:
IL-6Rα = target: T1, IL-6Rα (Homo sapiens, UniProt P08887); assay: Cell surface binding on IL-6Rα+/IL-8R− HEK 293T cells (flow cytometry); conditions: 2 hr at 4° C.
T1 construct: expressed in transfected cells; host or cells: HEK 293T, lentiviral transduction (pCDH backbone)
T1 sequence (P08887 20-468): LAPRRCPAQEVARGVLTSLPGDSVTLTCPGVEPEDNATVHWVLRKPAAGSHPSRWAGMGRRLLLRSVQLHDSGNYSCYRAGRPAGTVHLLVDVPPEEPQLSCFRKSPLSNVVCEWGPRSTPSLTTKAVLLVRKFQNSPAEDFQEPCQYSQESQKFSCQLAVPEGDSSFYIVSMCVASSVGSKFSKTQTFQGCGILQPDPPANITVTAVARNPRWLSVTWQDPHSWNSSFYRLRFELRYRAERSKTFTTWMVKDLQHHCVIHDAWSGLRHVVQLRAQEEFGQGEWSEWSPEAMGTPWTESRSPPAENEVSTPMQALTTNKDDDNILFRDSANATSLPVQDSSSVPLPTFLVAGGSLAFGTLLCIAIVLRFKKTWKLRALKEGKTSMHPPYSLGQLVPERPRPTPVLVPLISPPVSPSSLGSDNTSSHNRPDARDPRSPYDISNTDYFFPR
Excerpt: GeneJuice (Sigma Aldrich) was used as the transfection reagent.
Mean fluorescence intensity (MFI) of unstimulated cells was subtracted.

IL-8 binding to IL-8R = target: T2, IL-8 binding to IL-8R (Homo sapiens, UniProt P25025); assay: IL-8 cell surface binding inhibition on IL-6Rα−/IL-8R+ HEK 293T cells; conditions: His-tagged IL-8 400 nM
T2 construct: expressed in transfected cells; host or cells: HEK 293T, lentiviral transduction (IL-6Rα−/IL-8R+)
T2 sequence (P25025 1-360): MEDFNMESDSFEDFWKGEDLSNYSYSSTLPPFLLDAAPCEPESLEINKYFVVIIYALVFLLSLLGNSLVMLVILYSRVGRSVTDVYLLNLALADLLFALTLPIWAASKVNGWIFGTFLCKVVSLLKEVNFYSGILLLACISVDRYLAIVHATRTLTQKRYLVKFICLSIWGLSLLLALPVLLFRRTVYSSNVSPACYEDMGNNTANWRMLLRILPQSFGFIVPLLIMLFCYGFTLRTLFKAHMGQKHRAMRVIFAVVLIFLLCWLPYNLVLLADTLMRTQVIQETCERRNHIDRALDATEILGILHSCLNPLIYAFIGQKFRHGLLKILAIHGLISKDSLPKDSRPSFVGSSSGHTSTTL
Description: Cells were then washed and incubated with 1:200 dilution of Alexa Fluor 647-conjugated streptavidin (Fisher Scientific, cat #: S21374) in PBSA for 15 min at 4° C. […] Curves were fitted to a first-order logistic model and IC50 values were calculated using GraphPad Prism data analysis software. Mean fluorescence intensity (MFI) of unstimulated cells was subtracted. […]

## tocilizumab
IL-6Rα
  KD, binding to IL-6Rα on cells: only recognized IL-6Rα^+ cells
IL-8 binding to IL-8R
  IC50, competition with IL-8 binding to IL-8R: did not exert any inhibitory effects
